# T1: recombinant IL-3Rα ectodomain (human, UniProt P26951 19-305)
# T1 construct: extracellular domain; also called recombinant IL-3Ra; biotinylated-IL-3Rα ectodomain
# T1 sequence (looked up): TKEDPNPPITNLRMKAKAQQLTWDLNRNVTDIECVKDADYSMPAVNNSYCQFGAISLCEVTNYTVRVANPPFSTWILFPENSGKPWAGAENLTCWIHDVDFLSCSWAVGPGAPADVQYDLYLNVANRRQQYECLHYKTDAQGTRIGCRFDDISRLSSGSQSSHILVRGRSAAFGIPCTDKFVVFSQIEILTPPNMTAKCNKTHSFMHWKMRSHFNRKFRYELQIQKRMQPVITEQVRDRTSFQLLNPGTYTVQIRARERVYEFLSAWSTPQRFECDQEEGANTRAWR
# T2: human IL-23R, cell-expressed (human, UniProt Q5VWK5 24-629)
# T2 construct: whole, on cells
# T2 sequence (looked up): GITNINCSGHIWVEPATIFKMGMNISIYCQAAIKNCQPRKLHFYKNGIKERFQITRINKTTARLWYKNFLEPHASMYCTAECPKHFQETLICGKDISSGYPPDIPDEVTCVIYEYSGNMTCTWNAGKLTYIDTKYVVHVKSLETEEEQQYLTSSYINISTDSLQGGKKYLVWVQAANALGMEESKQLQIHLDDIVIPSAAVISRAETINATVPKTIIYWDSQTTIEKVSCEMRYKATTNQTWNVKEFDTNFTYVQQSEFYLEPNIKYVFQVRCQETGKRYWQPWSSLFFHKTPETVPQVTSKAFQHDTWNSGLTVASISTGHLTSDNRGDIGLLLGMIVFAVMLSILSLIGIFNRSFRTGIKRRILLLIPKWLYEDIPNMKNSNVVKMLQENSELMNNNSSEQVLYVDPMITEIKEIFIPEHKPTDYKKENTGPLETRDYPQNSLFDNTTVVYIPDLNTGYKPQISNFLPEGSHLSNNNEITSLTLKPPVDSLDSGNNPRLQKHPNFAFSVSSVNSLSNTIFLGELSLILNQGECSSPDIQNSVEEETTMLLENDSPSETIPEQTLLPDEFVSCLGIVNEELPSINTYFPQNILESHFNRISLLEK
# T3: human IL-23R extracellular domain Fc-fusion (human, UniProt Q5VWK5 24-355)
# T3 construct: extracellular domain; bought; also called IL-23R-Fc
# T3 sequence (looked up): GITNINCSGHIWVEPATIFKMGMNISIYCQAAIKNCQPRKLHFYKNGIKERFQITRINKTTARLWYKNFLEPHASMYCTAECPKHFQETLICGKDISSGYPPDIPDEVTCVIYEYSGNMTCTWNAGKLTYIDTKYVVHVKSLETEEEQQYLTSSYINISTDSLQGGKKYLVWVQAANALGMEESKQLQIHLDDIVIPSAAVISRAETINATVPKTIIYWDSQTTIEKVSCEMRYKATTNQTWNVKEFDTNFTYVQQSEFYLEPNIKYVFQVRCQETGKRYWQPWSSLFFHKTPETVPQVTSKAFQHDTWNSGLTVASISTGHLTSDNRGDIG
# B1: 281F12 (VHH)
# VHH: EVQLVESGGGLVQAGDSLRLSCAASGRAFSRYAMGWFRQAPGKEREFVAAIGWGPSKTNYADSVKGRFTISRDNAKNTVYLQMNTLKPEDTAVYSCAAKFVNTDSTWSRSEMYTYWGQGTLVTVSS
# notes: also called CXCR4#2; 4CXCR281F12-FLAG3-HIS6
# B2: 3F11 (VHH)
# VHH: EVQLVESGGGSVQPGGSLTLSCGTSGRTFNVMGWFRQAPGKEREFVAAVRWSSTGIYYTQYADSVKSRFTISRDNAKNTVYLEMNSLKPEDTAVYYCAADTYNSNPARWDGYDFRGQGTQVTVSS
# notes: also called CD4#8; 03F11
# B3: IL23R#19: 150D02 (VHH)
# VHH: EVQLVESGGGLVQPGGSLTLSCVASGRTFSTDVMGWFRQAPGKEREFVAAHRTSGISTVYAASVKGRFTISRDNAKNTVYLGMKSLKPEDTAVYVCAAGSDASGGYDYWGQGTLVTVSS
# notes: also called LG150D02
# Legend:
# [1] = target: T4, human CXCR4 (on cells, viral lipoparticles or membrane extracts) (human, UniProt P61073 1-352); assay: flow cytometry on THP-1 cells (CXCR4 and IL-3Ra)
# T4 construct: whole, on cells; also called hCXCR4 VLPs; CXCR4-lip
# [2] = target: T4, human CXCR4 (on cells, viral …); assay: flow cytometry on MOLM-13 cells (IL-3Ra higher than CXCR4)
# [3] = target: T4, human CXCR4 (on cells, viral …); assay: [125I]-SDF-1 displacement, Hek-CXCR4 membrane extracts
# [4] = target: T4, human CXCR4 (on cells, viral …); assay: FACS, Jurkat E6-1 cells
# [5] = target: T4, human CXCR4 (on cells, viral …); assay: cell-based or functional assay
# [6] = target: T4, human CXCR4 (on cells, viral …); assay: cell-based or functional assay; remark: listed apart in the source
# [7] = target: T4, human CXCR4 (on cells, viral …); assay: cell-based or functional assay; remark: listed apart in the source
# [8] = target: T4, human CXCR4 (on cells, viral …); assay: cell-based or functional assay; remark: listed apart in the source
# [9] = target: T1, recombinant IL-3Rα ectodomain; assay: ELISA on recombinant IL-3Ra ectodomain (both lower panels)
# [10] = target: T4, human CXCR4 (on cells, viral …); assay: flow cytometry on U-937 cells (CXCR4, virtually no IL-3Ra)
# [11] = target: T4, human CXCR4 (on cells, viral …); assay: FACS, Jurkat cells
# [12] = target: T4, human CXCR4 (on cells, viral …); assay: flow cytometry on THP-1 cells (CD4 and CXCR4), detection via tag
# [13] = target: T4, human CXCR4 (on cells, viral …); assay: FACS, MOLM-13 cells
# [14] = target: T4, human CXCR4 (on cells, viral …); assay: cell-based or functional assay; remark: listed apart in the source
# [15] = target: T4, human CXCR4 (on cells, viral …); assay: cell-based or functional assay; remark: listed apart in the source
# [16] = target: T4, human CXCR4 (on cells, viral …); assay: ELISA on coated hCXCR4 lipoparticles against null lipoparticles, anti-c-myc detection
# [17] = target: T5, human CD4, cell-expressed (human, UniProt P01730 26-458); assay: FACS, Jurkat E6.1 cells (CD4 no or low)
# T5 construct: whole, on cells
# [18] = target: T5, human CD4, cell-expressed; assay: FACS, MOLM-13 cells
# [19] = target: T5, human CD4, cell-expressed; assay: cell-based or functional assay
# [20] = target: T5, human CD4, cell-expressed; assay: FACS, THP-1 cells
# [21] = target: T5, human CD4, cell-expressed; assay: cell-based or functional assay; remark: listed apart in the source
# [22] = target: T5, human CD4, cell-expressed; assay: FACS, Jurkat E6-1 cells (CD4 low)
# [23] = target: T5, human CD4, cell-expressed; assay: FACS, human T cells
# [24] = target: T6, human IL12Rβ1, cell-expressed (human, UniProt P42701 24-662); assay: flow cytometry on isolated CD8+ T cells of donor D863, anti-Flag detection
# T6 construct: whole, on cells; in the context of the heterodimeric receptor; also called IL12Rb1
# [25] = target: T5, human CD4, cell-expressed; assay: FACS, MOLM-13 cells; remark: listed apart in the source
# [26] = target: T5, human CD4, cell-expressed; assay: cell-based or functional assay; remark: listed apart in the source
# [27] = target: T5, human CD4, cell-expressed; assay: cell-based or functional assay; remark: listed apart in the source
# [28] = target: T5, human CD4, cell-expressed; assay: flow cytometry on MOLM-13 cells (CD4, no IL12R or IL23R), upper right panel
# [29] = target: T2, human IL-23R, cell-expressed; assay: FACS, Th17-differentiated T cells
# [30] = target: T2, human IL-23R, cell-expressed; assay: cell-based or functional assay
# [31] = target: T3, human IL-23R extracellular domain …; assay: SPR Biacore T100, captured IL-23R-Fc
# [32] = target: T3, human IL-23R extracellular domain …; assay: competition ELISA, coated IL-23 + 5 nM IL-23R-Fc
# [33] = target: T3, human IL-23R extracellular domain …; assay: competition ELISA, coated IL-23 + IL-23R-Fc; IL-23 competition ELISA of Table 3.3
# T4 sequence (P61073 whole entry): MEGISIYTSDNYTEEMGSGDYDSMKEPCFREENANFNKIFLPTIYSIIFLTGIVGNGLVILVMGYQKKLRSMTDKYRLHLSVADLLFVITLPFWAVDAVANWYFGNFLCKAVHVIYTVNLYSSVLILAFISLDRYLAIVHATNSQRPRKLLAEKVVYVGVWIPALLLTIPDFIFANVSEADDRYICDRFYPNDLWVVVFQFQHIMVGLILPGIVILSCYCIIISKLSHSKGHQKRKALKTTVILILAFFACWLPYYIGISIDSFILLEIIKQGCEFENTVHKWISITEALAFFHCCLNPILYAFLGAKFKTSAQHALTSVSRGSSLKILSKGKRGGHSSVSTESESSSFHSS
binder,measurement,setting,value
B1,EC50 (read off the curve),[1],~20 nM
same,EC50 (read off the curve),[2],~20 nM
same,Ki,[3],26.9 nM
same,EC50,[4],7 nM
same,"IC50, SDF-1 chemotaxis, Jurkat",[5],68 nM
same,"IC50, HIV-1 NL4.3 wt, MT-4",[6],22.7 nM
same,"IC50, NL4.3 2G12 res., MT-4",[6],17.3 nM
same,"IC50, NL4.3 AMD-3100 res., MT-4",[6],> 1670 nM
same,"IC50, NL4.3 CD4#8 res., MT-4",[6],87.3 nM
same,"IC50, NL4.3 CXCL-12res., MT-4",[6],220 nM
same,"IC50, NL4.3 CXCR4#2 res, MT-4",[6],2330 nM
same,"IC50, HIV-1 HE, MT-4",[7],10 nM
same,"IC50, HIV-1 NL4.3, MT-4",[7],22.7 nM
same,"IC50, HIV-2 ROD, MT-4",[7],86.7 nM
same,"IC50, SDF-1 chemotaxis, Jurkat E6-1",[8],84.2 nM
same,"IC50, SDF-1 chemotaxis, MOLM-13",[8],86 nM
same,binding result,[9],no binding (tested: 1E-6 M)
same,EC50 (read off the curve),[10],~10 nM
same,EC50,[11],7.8 nM
same,EC50 (read off the curve),[12],~6 nM
same,EC50,[13],5.2 nM
same,"IC50, CXCL-12 chemotaxis, Jurkat E6-1",[14],96.8 nM
same,"IC50, CXCL-12 chemotaxis, MOLM-13",[14],86 nM
same,"IC50, HIV-1 BaL (R5), PBMC",[15],> 1670 nM
same,"IC50, HIV-1 NL4.3 (X4), MT-4",[15],67.1 nM
same,"IC50, HIV-1 NL4.3 (X4), PBMC",[15],29.3 nM
same,"IC50, HIV-1 NL4.3 (X4), U87",[15],> 6670 nM
B2,binding result,[16],no binding (tested: 100 nM)
same,EC50,[17],1.1 nM
same,EC50,[18],0.7 nM
same,"IC50, HIV-1 NL4.3 wt, MT-4",[19],34.7 nM
same,"IC50, NL4.3 2G12 res., MT-4",[19],23.3 nM
same,"IC50, NL4.3 AMD-3100 res., MT-4",[19],22.7 nM
same,"IC50, NL4.3 CD4#8 res., MT-4",[19],> 6700 nM
same,"IC50, NL4.3 CXCL-12res., MT-4",[19],153 nM
same,"IC50, NL4.3 CXCR4#2 res, MT-4",[19],> 6700 nM
same,EC50,[20],1 nM
same,"IC50, HIV-1 HE, MT-4",[21],10 nM
same,"IC50, HIV-1 NL4.3, MT-4",[21],34.7 nM
same,"IC50, HIV-2 ROD, MT-4",[21],22.7 nM
same,EC50,[22],61 nM
same,EC50,[23],0.76 nM
same,binding result,[24],no binding (tested: 250 nM)
same,EC50,[25],0.6 nM
same,"IC50, HIV-1 NL4.3 neutralization, PBMCs",[26],29.3 nM
same,"IC50, HIV-1 NL4.3 (X4), MT-4",[27],66.7 nM
same,"IC50, HIV-1 NL4.3 (X4), PBMC",[27],580 nM
same,"IC50, HIV-1 NL4.3 (X4), U87",[27],> 1330 nM
B3,binding result,[28],no binding (tested: 1E-6 M)
same,EC50,[29],20 nM
same,"IC50, IL-23 dependent IL-17 release, PBMC D840",[30],100 nM
same,Kd,[31],11 nM
same,koff,[31],0.0081 s⁻¹
same,kon,[31],730000 M⁻¹ s⁻¹
same,IC50,[32],4.7 nM
same,IC50,[33],1.7 nM
same,binding result,[24],no binding (tested: 250 nM)
